This is an account of results in the RNAGym collection of RNA variant scans (doi:10.7554/elife.80360).

Sequences and labels used below:
B1: Hairpin Ribozyme (parent)
chain: GUCCUCUUUCACGUGCGCGUGAAAGAGAGAAGUGAACCAGAGAAACACACGUUGUGGUAUAUUACCUGGUA

Variants of B1 are the subject of the data set. Nature of the data set: self-cleavage, relative activity (ratio to wild type); higher = more cleavage; co-transcriptional.
Consider C48U U58A, for which the self-cleavage was 0.214.
For the variant C46U U53C, the self-cleavage stood at 0.235.
Turning to G32U A61U, the self-cleavage was 0.109.
The value for A41G G68C was 0.508; that for U14C G34U was 1.54; that for A41C G51U was 1.48.
For U20A A41G, the self-cleavage is 0.681.
Regarding A11G G13A, the self-cleavage was 0.924.
The value for C4G U63A was 0.252; that for A39C G56U was 0.134; that for C38U A43G was 0.0885.
On to A30C G51A, for which the self-cleavage came to 0.26.
A22G A47C: the self-cleavage is 0.27.
U7A A49C: the self-cleavage was 0.18.
With C18U G57U, the self-cleavage came out at 0.234.
Regarding C6A A23C, the self-cleavage turned out to be 0.52.
In the case of C12A U60C, the self-cleavage was 0.893.
Regarding G29U A36U, the self-cleavage turned out to be 0.104.
For G1C G32C, the self-cleavage was found to be 0.116.
To U8A A35U belongs 0.459; to U2C A36G, 0.212; to C6U G34U, 1.21.
As for A49C A61C, the self-cleavage was found to be 0.124.
As to A22G C38G, the self-cleavage came to 0.185.
Turning to A22U A43G, the self-cleavage is 0.237.
As for G27U A39G, the self-cleavage was found to be 0.149.
The value for C16A G68A was 0.305.
With G15U U67G, the self-cleavage was determined as 0.364.
As for A23C U33G, the self-cleavage came to 0.171.
The value for A23C U33C was 0.307; that for A24U G68A was 0.361.
Take G54A G68U: the self-cleavage was 0.227.
Take A11G G17U: the self-cleavage stood at 0.823.
Consider C4A G54C, for which the self-cleavage was 0.133.
On to G56C U60C, for which the self-cleavage turned out to be 0.156.
Regarding A11G G42C, the self-cleavage amounted to 0.322.
To G25A G32U belongs 0.144; to G42U A49C, 0.173; to A30U A61G, 0.0939.
Consider U7G G42A, for which the self-cleavage was found to be 0.218.
As to C12A U52A, the self-cleavage amounted to 0.763.
For C10G A45G, the self-cleavage was 0.118.
On to U33C U58G, for which the self-cleavage worked out at 0.0694.
Turning to G19U U52G, the self-cleavage turned out to be 0.741.
Take U8C U9A: the self-cleavage is 0.266.
As for U7C A31G, the self-cleavage is 0.525.
With G42U U63A, the self-cleavage is 0.195.
For the variant G32U U63A, the self-cleavage was found to be 0.172.
On to G19C A43U, for which the self-cleavage stood at 0.121.
Turning to C16U G34A, the self-cleavage turned out to be 1.26.
In the case of A44C U53C, the self-cleavage amounted to 0.108.
As to G54C U60G, the self-cleavage worked out at 0.27.
As to C16A C50U, the self-cleavage was determined as 0.309.
To G15U C16G belongs 1.09; to A26G A61G, 0.161.
As for A59C A71G, the self-cleavage stood at 0.119.
For the variant C4U A31G, the self-cleavage turned out to be 0.0741.
To A43U C46A belongs 0.0823; to A43U C46G, 0.0741; to A23G U60G, 0.516.
As for G21U G56C, the self-cleavage was 0.116.
Consider G13C A43G, for which the self-cleavage was 0.144.
The value for C3G A64G was 0.126; that for U63C C65U was 0.131.
As for C3G U70A, the self-cleavage was found to be 0.252.
Consider G29U A44U, for which the self-cleavage was determined as 0.125.
Regarding U14G C65G, the self-cleavage worked out at 0.213.
Turning to G25A U67G, the self-cleavage was determined as 0.176.
Turning to G1A A30C, the self-cleavage came out at 0.291.
C38U U63A: the self-cleavage came to 0.141.
For U9G A43C, the self-cleavage worked out at 0.0922.
Take U5A A28G: the self-cleavage was determined as 0.471.
For G1A A59C, the self-cleavage was 0.22.
In the case of A31C A41C, the self-cleavage is 0.0332.
A22C A45U: the self-cleavage came to 0.108.
For C12A C65U, the self-cleavage amounted to 0.309.
With A26G C38U, the self-cleavage worked out at 0.297.
The value for C16G G29A was 0.202.
As to A11C A35C, the self-cleavage was determined as 0.764.
On to A28U A47U, for which the self-cleavage was 0.125.
On to C37U U55G, for which the self-cleavage is 0.159.
The value for C4A A35C was 0.127.
For G19A A59C, the self-cleavage was found to be 0.199.
Take C3A G15U: the self-cleavage came to 0.761.
For the variant U53A G54A, the self-cleavage worked out at 0.68.
For the variant G1C A23G, the self-cleavage is 0.132.
The value for A26U U58A was 0.391.
The value for G1A U20C was 0.188; that for G1A C4U was 0.241.
With A26G A44G, the self-cleavage is 0.241.
With G25C U52C, the self-cleavage was 0.657.
The value for A35C A39U was 0.445; that for A11C A36C was 0.471; that for A24U U55C was 0.11.
As for A45G A49U, the self-cleavage stood at 0.172.
The value for A22G A44G was 0.193.
G32A G54A: the self-cleavage is 0.156.
As to C3A G68U, the self-cleavage is 0.195.
As to G27A U33C, the self-cleavage was 0.0597.
Turning to G27A U60G, the self-cleavage amounted to 0.213.
In the case of C3U G25U, the self-cleavage stood at 0.187.
Take U9C G32A: the self-cleavage amounted to 0.125.
For the variant U52A G69U, the self-cleavage was found to be 0.325.
On to G29A U33C, for which the self-cleavage came to 0.0835.
In the case of A36U G42U, the self-cleavage stood at 0.173.
With C10A A43C, the self-cleavage turned out to be 0.0904.
To A44G C46U belongs 0.139.
C6U C48U: the self-cleavage came to 0.227.
The value for U14C G68A was 0.234; that for G34A U70A was 1.14; that for G27U U52C was 0.377.
For the variant C6A U8C, the self-cleavage came to 0.344.
To A11U U33C belongs 0.152; to A11G G19U, 0.979.
Regarding U7C G29C, the self-cleavage was found to be 0.131.
For U9C A35G, the self-cleavage came out at 0.688.
For A47C A59G, the self-cleavage turned out to be 0.0267.
For the variant G1C G54A, the self-cleavage was determined as 0.141.
G13A G57C: the self-cleavage was determined as 0.164.
For the variant G15U U63G, the self-cleavage amounted to 0.108.
To U52A A64G belongs 0.603.
As for C3A U70A, the self-cleavage was found to be 0.377.
Turning to C16G A28U, the self-cleavage came out at 0.483.
For the variant G51U C66A, the self-cleavage stood at 0.192.
With G13C A36U, the self-cleavage was 0.4.
To C10U G57U belongs 0.239; to G29A U53C, 0.234; to U20G G54C, 0.321.
Consider A43C, for which the self-cleavage came out at 0.141.
Turning to U52G C65U, the self-cleavage stood at 0.302.
Consider U9A G17C, for which the self-cleavage is 0.261.
With A49U U67A, the self-cleavage is 0.0529.
For C18G U67A, the self-cleavage was 0.229.
Take G21C A26U: the self-cleavage came to 0.57.
With U7A G29C, the self-cleavage is 0.149.
For A31G A43U, the self-cleavage is 0.11.
G1U U55C: the self-cleavage is 0.217.
As to A41G A43G, the self-cleavage was determined as 0.157.
To U9C A41U belongs 0.966; to A35C U63C, 0.0565.
As to U2G G32C, the self-cleavage stood at 0.155.
The value for G56A U63A was 0.133; that for C16G G68A was 0.243; that for U7A G40A was 0.313.
With C12G A35C, the self-cleavage was determined as 0.74.
With A44G A49U, the self-cleavage was found to be 0.0347.
To U20C G51C belongs 0.54; to G15U G42U, 0.369.
For C3U C16U, the self-cleavage came out at 0.628.
To A49C U62G belongs 0.225; to G21C C38U, 0.452; to C37A A49G, 0.325.
As to C46A A59G, the self-cleavage worked out at 0.107.
With C4A G40U, the self-cleavage turned out to be 0.141.
Regarding G13U A64G, the self-cleavage stood at 0.533.
As to U20C A49U, the self-cleavage was 0.148.
G54U C65A: the self-cleavage came to 0.561.
Turning to U58A G68A, the self-cleavage stood at 0.272.
Regarding G15U A23U, the self-cleavage came out at 0.918.
G15U A23G: the self-cleavage was found to be 0.87.
As for A28U G40U, the self-cleavage is 0.13.
Turning to A22G G68A, the self-cleavage is 0.307.
For the variant A22G G68U, the self-cleavage is 0.362.
As to A31G G68C, the self-cleavage came to 0.115.
With A22C A71U, the self-cleavage is 0.685.
In the case of U7C A44C, the self-cleavage came out at 0.0427.
With C18A A31C, the self-cleavage turned out to be 0.192.
